Experimental data: patent US20220356229A1 (published 2022)

T1: HKU1 full length Spike (human coronavirus HKU1, UniProt Q5MQD0 13-1276)
T1 sequence: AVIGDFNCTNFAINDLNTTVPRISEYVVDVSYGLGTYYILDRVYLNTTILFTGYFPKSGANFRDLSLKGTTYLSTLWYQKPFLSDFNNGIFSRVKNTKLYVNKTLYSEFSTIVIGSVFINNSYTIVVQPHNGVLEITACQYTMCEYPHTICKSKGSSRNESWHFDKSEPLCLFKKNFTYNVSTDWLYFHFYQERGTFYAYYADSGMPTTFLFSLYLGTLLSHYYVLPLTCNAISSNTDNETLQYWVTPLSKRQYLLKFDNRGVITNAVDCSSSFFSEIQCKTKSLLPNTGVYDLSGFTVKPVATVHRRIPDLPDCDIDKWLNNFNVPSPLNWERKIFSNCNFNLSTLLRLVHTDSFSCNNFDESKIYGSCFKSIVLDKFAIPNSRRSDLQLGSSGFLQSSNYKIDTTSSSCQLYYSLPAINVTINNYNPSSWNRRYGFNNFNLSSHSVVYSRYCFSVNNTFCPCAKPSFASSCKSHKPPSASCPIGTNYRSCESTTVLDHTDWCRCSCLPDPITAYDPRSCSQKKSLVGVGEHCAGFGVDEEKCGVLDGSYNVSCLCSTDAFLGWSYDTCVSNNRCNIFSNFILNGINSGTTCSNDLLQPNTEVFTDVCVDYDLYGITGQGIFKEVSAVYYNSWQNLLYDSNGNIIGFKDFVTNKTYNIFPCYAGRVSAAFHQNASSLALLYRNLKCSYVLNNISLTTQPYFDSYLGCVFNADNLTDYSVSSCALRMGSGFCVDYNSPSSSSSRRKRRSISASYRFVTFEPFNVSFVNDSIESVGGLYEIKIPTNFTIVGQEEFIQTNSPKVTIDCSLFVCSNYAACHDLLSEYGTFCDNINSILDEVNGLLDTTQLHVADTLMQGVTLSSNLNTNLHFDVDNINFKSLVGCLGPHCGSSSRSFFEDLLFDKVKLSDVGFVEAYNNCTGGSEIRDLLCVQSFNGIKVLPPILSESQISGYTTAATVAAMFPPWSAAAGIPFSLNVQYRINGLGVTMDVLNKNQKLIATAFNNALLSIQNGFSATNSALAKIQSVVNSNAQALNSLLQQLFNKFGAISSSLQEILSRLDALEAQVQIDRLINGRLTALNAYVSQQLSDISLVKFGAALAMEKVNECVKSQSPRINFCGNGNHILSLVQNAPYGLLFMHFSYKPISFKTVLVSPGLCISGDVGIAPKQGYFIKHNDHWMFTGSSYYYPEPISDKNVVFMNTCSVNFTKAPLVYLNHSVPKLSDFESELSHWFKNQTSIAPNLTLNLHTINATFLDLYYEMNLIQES

T2: MERS full length Spike (MERS-CoV, UniProt K9N5Q8 18-1291)
T2 sequence: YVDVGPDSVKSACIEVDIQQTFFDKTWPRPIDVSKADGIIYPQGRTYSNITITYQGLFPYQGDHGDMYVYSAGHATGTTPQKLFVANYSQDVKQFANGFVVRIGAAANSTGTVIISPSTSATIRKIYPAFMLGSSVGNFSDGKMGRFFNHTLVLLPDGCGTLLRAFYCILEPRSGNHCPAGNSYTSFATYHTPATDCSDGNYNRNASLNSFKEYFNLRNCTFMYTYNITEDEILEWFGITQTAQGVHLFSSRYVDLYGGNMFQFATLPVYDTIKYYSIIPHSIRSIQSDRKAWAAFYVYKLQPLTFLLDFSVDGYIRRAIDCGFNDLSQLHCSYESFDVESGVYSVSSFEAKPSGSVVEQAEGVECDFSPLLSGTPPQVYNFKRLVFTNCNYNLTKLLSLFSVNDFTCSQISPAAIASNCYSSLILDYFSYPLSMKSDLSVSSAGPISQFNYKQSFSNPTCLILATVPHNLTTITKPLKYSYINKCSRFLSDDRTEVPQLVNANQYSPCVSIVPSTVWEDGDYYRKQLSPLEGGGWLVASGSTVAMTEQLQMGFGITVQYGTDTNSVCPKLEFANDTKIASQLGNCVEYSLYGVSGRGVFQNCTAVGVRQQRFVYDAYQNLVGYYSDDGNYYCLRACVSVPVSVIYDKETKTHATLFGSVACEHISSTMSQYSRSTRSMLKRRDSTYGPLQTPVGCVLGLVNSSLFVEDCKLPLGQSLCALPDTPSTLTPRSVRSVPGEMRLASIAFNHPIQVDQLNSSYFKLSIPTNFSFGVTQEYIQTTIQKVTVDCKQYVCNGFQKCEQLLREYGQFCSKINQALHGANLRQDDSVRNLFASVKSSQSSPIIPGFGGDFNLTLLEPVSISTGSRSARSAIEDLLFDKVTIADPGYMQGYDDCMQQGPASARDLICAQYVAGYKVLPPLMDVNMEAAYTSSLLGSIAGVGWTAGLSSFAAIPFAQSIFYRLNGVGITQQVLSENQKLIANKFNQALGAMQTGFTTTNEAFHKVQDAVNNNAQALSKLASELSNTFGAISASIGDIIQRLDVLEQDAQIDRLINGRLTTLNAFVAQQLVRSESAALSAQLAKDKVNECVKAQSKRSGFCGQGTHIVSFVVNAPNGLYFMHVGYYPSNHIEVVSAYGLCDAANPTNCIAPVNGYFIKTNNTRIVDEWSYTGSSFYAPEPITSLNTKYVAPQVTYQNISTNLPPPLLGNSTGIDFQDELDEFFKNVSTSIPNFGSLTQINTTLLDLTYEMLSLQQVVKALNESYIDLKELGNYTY


What was measured:
[1] = biological target: T1, HKU1 full length Spike
[2] = biological target: T2, MERS full length Spike
[3] = biological target: SARS-CoV full length Spike (SARS-CoV, UniProt P59594 14-1190)
[4] = biological target: SARS-CoV-2 Spike (S) protein, wild type, full length (SARS-CoV-2, UniProt P0DTC2 14-1208)

Row | Binder | median fluorescence intensity, fold over isotype control [1] [fold over isotype] | median fluorescence intensity, fold over isotype control [2] [fold over isotype] | median fluorescence intensity, fold over isotype control [3] [fold over isotype] | bead binding signal (fold over isotype) [4] [fold over isotype]
1 | mAb 1538 (antibody, V domains shown) VH: EVQLLESGGGLVQPGGSLRLSCAASGFTFSSYAMSWVRQAPGKGLEWVSGISDSGGSTYYADYVKGRFTISRDNSKDTLYLQMNSLRAEDTAVYYCAKDRGNEYALTHYYYYAMDVWGQGTTVTVSS VL: DIQMTQSPSSLSASVGDRVTITCRASQSISSYLNWYQQKPGKAPKLLIYAAYSLQSGVPSRFSGGGSGTDFTLTISSLQPEDFATYFCQQSYSTPITFGQGTRLEIKR | 0.97 | 0.95 | 0.99 | 
2 | mAb 1495 (antibody, V domains shown) VH: QVQLVESGGGVVQPGRSLRLSCTASGFTFSSYAMHWVRQAPGKGLEWVAVISYDGNNKYYGDSVKGRFTISRDNSKNTLYLQMNSLRAEDTAVYYCAKGADTPHYSGYHFLSVGYYFYGMDVWGQGTTVTVSS VL: DIQMTQSPSSLSASVGDRVTITCRASQSISYYLNWYQQKPGKAPQLLIYAASSLQSGVPSRFSGSRSGTDFTLTISSLQPEDFATYYCQQSYSTPFTFGPGTKVDIKR | 1.05 | 0.93 | 1.08 | 
3 | mAb 1135 (antibody, V domains shown) VH: EVQLVESGGGLVQPGRSLRLSCAASGLTFEDYAMHWVRQVPGKGLEWVSGISWNSGTIGYADSVKGRFIISRDNAKNSLYLQMRSLRAEDTALYYCAKDVGFGELLYYAFDIWGQGTMVTVSS VL: QSALTQPASVSGSPGQSITISCTGTSSDVGGYNYVSWYQQHPGKAPKLMIYDVSNRPSGVSNRFSGSKSGNTASLTISGLQAEDEADYYCSSYTSSSTVVFGGGTKLTVLG | 0.83 | 0.93 | 0.92 | 
4 | mAb 1075 (antibody, V domains shown) VH: QVQLVQSGAEVKKPGASVKVSCKVSGYTLIELSMHWVRQAPGKGLEWMGGFDPEDGETIYAQKFQGRVTMTEDTSTDTAYMELSSLRSEDTAVYYCATEWAYYGSGSYLGYWGQGTLVTVSS VL: EIVMTQSPATLSVSPGERATLSCRASQSVSSNLAWFQQKPGQAPRLLIYGASTRVTVIPARFSGSGSGTEFTLTISSLQSEDFAVYYCQQYNNWPRTFGQGTKVEIKR | 0.93 | 0.89 | 0.91 | 
5 | mAb 1444 (antibody, V domains shown) VH: QVQLVQSGAEVKKPGASVKVSCKASGYTFTAYYMHWVRQAPGQGLEWMGWINPNSDDTNYAQKFQGRVTMTRDTSISTAYMELSRLRSDDTAVYYCAREEGVFTIGDRYFDLWGRGTLVSVSS VL: QTVVTQEPSFSVSPGGTVTLTCGLSSGSVSTSYYPSWYQQTPGQAPRTLIYNTNTRSSGVPDRFSGSILGNKAALTITGAQADDESDYYCVLYMGSGIWVFGGGTKLTVLG | 0.98 | 0.98 | 1.03 | 
6 | mAb 1037 (antibody, V domains shown) VH: QITLKESGPTLVKPTQTLTLTCTFSGFSLSTSGVGVGWIRQPPGKALEWLALIYWDDDKRYSPSLKSRLTITKDTSKNQVVLTMTNMDPVDTATYYCAHHTITRINDYWGQGTLVTVSS VL: QSALTQPASVSGSPGQSITISCTATSSDVGAYNYVSWYQQHPGKAPKLMIYDVSKRPSGVSNRFSGSKSGNTASLTISGLQAEDEADYYCSSYTSSSTVFGGGTKLTVLG | 1.43 | 1.06 | 4.36 | 
7 | mAb 1404 (antibody, V domains shown) VH: QITLKESGPTLVKPTQTLTLTCTFSGFSLSISGVGVGWLRQPPGKALEWLALIYWDDDKRYSPSLKSRLTISKDTSKNQVVLKMTNIDPVDTATYYCAHHSISTIFDHWGQGTLVTVSS VL: QSALTQPASVSGSPGQSITISCTATSSDVGDYNYVSWYQQHPGKAPKLMIFEVSDRPSGISNRFSGSKSGNTASLTISGLQAEDEADYYCSSYTTSSAVFGGGTKLTVLG | 0.94 | 0.91 | 0.97 | 
8 | antibody 294 (antibody, V domains shown) VH: EVQLVESGGGLVQPGGSLRLSCAASGFTVSSNYMNWVRQAPGKGLEWVSVIYSGGSTYYADSVKGRFTISRDNSKNTLYLQMNSLRAEDTAVYYCARDLGPSGMDVWGQGTTVTVSS VL: DIQMTQSPSSVSASVGDRVTITCRASQGISSWLAWYQQKPGKAPKLLIYAASSLQSGVPSRFSGSGSGTDFTLTISSLQPEDFATYYCQQANSFPLFGGGTKVEIK |  |  |  | 1230
9 | antibody 288 (antibody, V domains shown) VH: EVQLVESGGGLVQPGGSLRLSCAASGFTFSSYDMHWVRQATGKGLEWVSAIGTAGDTYYPGSVKGRFTISRENAKNSLYLQMNSLRAGDTAVYYCARGANRDYDILTGYYSYYYYGMDVWGQGTTVTVSS VL: not shown |  |  |  | 495
10 | mAb 1149 (antibody, V domains shown) VH: QVQLVQSGAEVKKPGASVKVSCKASGYTFASYDINWVRQATGQGPEWMGWMIPNIGNTGYAQKFQGRVTMTRNTSISTAYMELSSLTSEDTAVYYCARVSRLFNDFGLRHEAPVDFWGQGTRVTVSS VL: QSVLTQPPSVSGAPGQRVTISCTGSSSNIGAGYDVHWYQQLPGTAPKLLIYGYSSRPSGVPDRFSGSKSGTSASLAITGLQAEDEADYYCQSYDSSLSVLFGGGTKLTVLG | 0.83 | 1.04 | 1.05 | 
11 | mAb 1585 (antibody, V domains shown) VH: QVQLVESGGGVVQPGRSLRLSCAASGFTFSRFTLHWVRQAPGKGLEWVAVISYDGSNKYYADSVKGRFTISRDNSKSTLYLQMNSLRAEDTGVYYCARDPSTVTGYFDYWGQGTLVTVSS VL: SYVLTQPPSVSVAPGKTAKISCGGDSIGSKSVHWYQQKPGQAPVLVIYYDNDRPSGIPERFSGSNSGNTATLTISRVEAGDEADYYCQVWDIGVVFGGGTKLTVLG | 0.88 | 0.94 | 25.8 | 
